# In paper PMC10387464 (Signal Transduction and Targeted Therapy, 2023):
# B1: MB.02 Fab (Fab, V domains shown)
# VH: EVQLVQSGAEVKKPGESLKISCKGSGFSFTSYWIGWVRQMPGKGLEWMGIIYPGDSDTRYSPSFQGQVTISADKSISTAYLQWSSLKASDTAMYYCARGGYEDVFDIWGQGTMVTVSS
# VL: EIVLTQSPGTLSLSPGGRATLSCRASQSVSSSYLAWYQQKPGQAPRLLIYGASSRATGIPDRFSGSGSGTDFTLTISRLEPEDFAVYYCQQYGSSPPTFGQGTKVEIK
# Target: Omicron BA.1 spike trimer (SARS-CoV-2 Omicron BA.1 (B.1.1.529), N440K | G446S)
# Test: cryo-EM structure
# Settings: both partners purified
binder,measurement,value
B1,stoichiometry N,3 Fabs per S trimer
